Experimental data reported in patent publication US20260083826A1, “NEW SYNTHETIC DRUGS FOR TREATING ALZHEIMER'S DISEASE” (OKINAWA INSTITUTE OF SCIENCE AND TECHNOLOGY SCHOOL …, priority 2022, published 2026).

Legend:
[1] = molecular target: Taxol-stabilized microtubules; assay: MT spin-down (co-sedimentation) assay with PHDP5 (1 mM) added as competitor to MT and dynamin 1
[2] = molecular target: microtubules in mouse calyceal terminals (endogenous, assembled after h-tau loading), Q9ERD7
Chain of microtubules in mouse calyceal terminals (endogenous, assembled after h-tau loading), Q9ERD7 (Q9ERD7 whole entry, looked up): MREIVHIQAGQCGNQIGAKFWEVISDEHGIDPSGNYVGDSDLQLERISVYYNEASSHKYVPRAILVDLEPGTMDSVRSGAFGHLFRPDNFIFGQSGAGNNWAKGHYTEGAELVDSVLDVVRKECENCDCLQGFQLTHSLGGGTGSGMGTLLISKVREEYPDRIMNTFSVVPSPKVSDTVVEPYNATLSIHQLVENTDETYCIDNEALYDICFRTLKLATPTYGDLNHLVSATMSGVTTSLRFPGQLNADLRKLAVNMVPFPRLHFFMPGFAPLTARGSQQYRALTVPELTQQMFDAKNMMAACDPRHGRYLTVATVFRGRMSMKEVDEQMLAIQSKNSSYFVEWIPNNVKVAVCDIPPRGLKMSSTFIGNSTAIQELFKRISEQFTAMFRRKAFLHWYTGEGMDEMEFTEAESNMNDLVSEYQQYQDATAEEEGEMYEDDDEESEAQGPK

His-tagged human dynamin 1 (from UniProt Q05193 1-864)
% of dynamin 1 in precipitates (ppts) relative to total amount [1]: 6.3%

B1: dynamin 1 in mouse calyx of Held presynaptic terminals (endogenous) (protein)
chain: MGNRGMEDLIPLVNRLQDAFSAIGQNADLDLPQIAVVGGQSAGKSSVLENFVGRDFLPRGSGIVTRRPLVLQLVNSTTEYAEFLHCKGKKFTDFEEVRLEIEAETDRVTGTNKGISPVPINLRVYSPHVLNLTLVDLPGMTKVPVGDQPPDIEFQIRDMLMQFVTKENCLILAVSPANSDLANSDALKIAKEVDPQGQRTIGVITKLDLMDEGTDARDVLENKLLPLRRGYIGVVNRSQKDIDGKKDITAALAAERKFFLSHPSYRHLADRMGTPYLQKVLNQQLTNHIRDTLPGLRNKLQSQLLSIEKEVDEYKNFRPDDPARKTKALLQMVQQFAVDFEKRIEGSGDQIDTYELSGGARINRIFHERFPFELVKMEFDEKELRREISYAIKNIHGIRTGLFTPDLAFEATVKKQVQKLKEPSIKCVDMVVSELTSTIRKCSEKLQQYPRLREEMERIVTTHIREREGRTKEQVMLLIDIELAYMNTNHEDFIGFANAQQRSNQMNKKKTSGNQDEILVIRKGWLTINNIGIMKGGSKEYWFVLTAENLSWYKDDEEKEKKYMLSVDNLKLRDVEKGFMSSKHIFALFNTEQRNVYKDYRQLELACETQEEVDSWKASFLRAGVYPERVGDKEKASETEENGSDSFMHSMDPQLERQVETIRNLVDSYMAIVNKTVRDLMPKTIMHLMINNTKEFIFSELLANLYSCGDQNTLMEESAEQAQRRDEMLRMYHALKEALSIIGDINTTTVSTPMPPPVDDSWLQVQSVPAGRRSPTSSPTPQRRAPAVPPARPGSRGPAPGPPPAGSALGGAPPVPSRPGASPDPFGPPPQVPSRPNRAPPGVPRITISDP
dynamin immunofluorescence in permeabilised h-tau-loaded terminals against terminals without h-tau loading [2]: a 2.6-fold increase in dynamin signal
